Measurements published in the supplement of paper PMC9170038.

Test system: K4 kissing-loop RNA reporter
Assay: apparent KD of K4 kissing-loop reporter; higher = weaker reporter binding
Conditions: Eterna round: R107
Method: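 RNA-MaP round R107: designed RNA switches with theophylline, tryptophan, arginine or FMN aptamers are transcribed on-chip within common flanks. They are titrated with a labelled K4 kissing-loop RNA reporter in RNA-MaP buffer (100 mM Tris pH 7.5, 80 mM KCl, 4 mM MgCl2), without ligand or with the indicated ligand. Median apparent KD per design.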

[1] = input ligand: theophylline 20 uM
[2] = input ligand: tryptophan 2.4 mM
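Further: bound reporter read as fluorescence of individual clusters on recovered sequencing chips by microscopy, with normalized cluster intensities fitted with a binding model.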

Sequence	apparent KD of K4 kissing-loop reporter (input ligand: FMN 200 uM) [µM]	apparent KD of K4 kissing-loop reporter (input ligand: arginine 13.2 mM) [µM]	apparent KD of K4 kissing-loop reporter (input ligand: none) [µM]	apparent KD of K4 kissing-loop reporter [1] [µM]	apparent KD of K4 kissing-loop reporter [2] [µM]
AAAAUAAAGCAGUGAUGUUGCUUAUGAGAAGGAGCGCACGAAAGUGCAGGUAGGUCGCUCAGCCAAGUGGACGAAAACGUCCACA [#OpenEnded 10 #K4Early]	0.112	0.122	0.123	0.144	0.0904
AAAAUAAGCCAGUGAUGUUGGGAUCCAGAUACCAGCGACGAAAGUCGCCCUUGGCAGCUGUGGACGUACAAAAUAAGUACGUCCU	0.924	0.706	1.04	0.927	0.992
AAAAUUAACAAGAGUGAUGUUCUUGUUAGACAGGAUAUCGGUUUAACGAGAAGGGUCGUGGCUCCAUUGGGCCCAGUGGUUCACC [Mazareri]	0.309	0.478	0.687	0.326	0.439
AAACAACUUGACGAUACCAGCUUACUCGGCAAGCCAGUGAUGUUGGUGAAAAGGAGUCAAAGCCCUUGGCAGCGUCGAAGGUCUG [Raatarerin]	0.271	0.24	0.304	0.119	0.258
AAACGCUUGAAUAACAAGCGAAAUAAAAUUCGAGGACCGGUACGGCCGCCACUCGGGCUAACUGCGAGUGAUGUUCGAAAAUAAA [Mat - Mod of OpenEnded 3 - D17]	0.156	0.191	0.257	0.405	0.0732
AAACGUUGUUGCGAUACCAGCUGAUCGGAAACGAUCAUGCUGGAGUGAUGUUCCAGGAAAAGCCCUUGGCAGCGCAACGACGAAA [MAT - Same State Theophlline B - Mod of Eli - D30]	0.276	0.134	0.228	0.296	0.179
AAACUACGUGACGAUACCAGCUUACUCGGCAAGCCAGUGAUGUUGGUGAAAAGGAGUCAAAGCCCUUGGCAGCGUCGAAGGUUUG [Usandiat]	0.257	0.215	0.252	0.129	0.255
AAACUUGCAGUGAUGUUGCAAGUAGGUGAUACCAGCAUCGAAAGAUGCCCUUGGCAGCACCAACACUGUAAGUAAGUAUCACCAA [(H1)-(H2)-(T1)-(T2)-(H)'-(T)'_Design2]	0.11	0.12	0.117	0.139	0.105
AAACUUGCAGUGAUGUUGCAAGUAGGUGAUACCAGCAUCGAAAGAUGCCCUUGGCAGCACCAUCACUGUAAGUAGGUGCUGUCAA [(H1)-(H2)-(T1)-(T2)-(H)'-(T)'_Design5]	0.0993	0.0885	0.105	0.111	0.103
AAAGAUCUUCUAGAAACUAGAAGAUCAAGAGAGGAUAUCCGAAUUCGGAGAAGGCUCACUAAGUGAUGUUUGGACCCAAAGGGAA [AK3 SS FMN A]	1.46	1.52	1.65	1.6	1.03
AAAGUGUCAGCACGAGUGAUGUUCGUGGAUACCAGCCUCGAUAAAGGCCCUUGGCAGCCGAAAAGUCAAGGGCUGGCACAUAAAA [KL-XTheo-A11]	0.216	0.205	0.251	0.341	0.226
AAAUAAAUCACGGCCGCCACUGUAAGUUGAAGUGAUGUUUCAAGAUAUAGUAUGUUUUAUAAUAUCAGGACCGGGUGAUUUUUAA [JR_SSTryptoB_Sub021]	0.147	0.103	0.133	0.115	0.119
AAAUAAAUCAGAGGAUAUUCUUCCCACGUCGAAGUACCGUGCUUGAUGGAGUGAUGUUCGAUCAGAGAAGAAGGCUGAUAAAUAA [Same State FMN B GF 19]	0.732	0.395	0.917	0.621	0.338
AAAUAAGCUCAUGAUACCAGCCAGUGAUGUUGGUUGGUCCACCGUGUCCGAACAUUAAGCGGCCCUUGGCAGCAUGAUGCGCGUA [Xearxea]	0.125	0.0985	0.0901	0.119	0.118
AAAUAGAUCAGUCAUCCAGUGAUGUUGGAAGGAGCGUGCGAAAGCACAGGUAGGUCGCCAGAAUAAAAGUGGCUGAUCAAAAUAA	0.273	0.318	0.322	0.467	0.178
AAAUAUAGUGAUGUUAUAUAUAUAUGUGAUACCAGAGAAAGAAAACUCCCUUGGCAGCACGAGAGAGAAUUUUUUUUUUAUAUAU [AstrosSSTheA#1]	0.362	0.398	0.552	0.414	0.245

Sequence	apparent KD of K4 kissing-loop reporter (input ligand: FMN 200 uM) [µM]	apparent KD of K4 kissing-loop reporter (input ligand: arginine 13.2 mM) [µM]	apparent KD of K4 kissing-loop reporter (input ligand: none) [µM]	apparent KD of K4 kissing-loop reporter [1] [µM]	apparent KD of K4 kissing-loop reporter [2] [µM]
AAAUAUUCGAGUGAUGUUCGAUAAAUUUCAGAGGAUAUGCUUAAAAGCAGAAGGCUGUAUUUCUAUUUGUUAUUAAAUUUUAUAA [JR_ExcFMNA_Sub002]	0.0903	0.107	0.0911	0.111	0.0769
AAAUUUAAUAUAUUUAAAUAAAUAUGUGAUACCAGACAUUUAUAAGUCCCUUGGCAGCACAAUGCAGUGAUGUUGCUUAUAAUAA [JR_SSTheophyA_Sub017]	0.0856	0.114	0.0888	0.192	0.0735
AAAUUUAAUAUAUUUAAUUAAUUAAGUGAUACCAGACAUUAAUAAGUCCCUUGGCAGCACAAUGCAGUGAUGUUGCUUAUAAUAA [JR_SSTheophyA_Sub009]	0.129	0.12	0.0766	0.169	0.0763
AACAACUUGUUUGUCGGGUGUUCGCGCGAUACCAGCCGAAUGGAUGGCCCUUGGCAGCGCAGCGAGUGAUGUUCGCCCGCUUGAC [Exclusion Theophylline A GF 24]	0.611	0.422	0.552	0.529	0.583
AACACUCACGGAGUGAUGUUCUGGAAUAAACGAGGACCGGUACGGCCGCCACUCGAAAAUGAGUGAGUCCUACGAAAAGUAGGAC [Omei inspired 4]	0.357	0.394	0.361	0.405	0.108
AACCUUGUAGUGAUGUUGCAAGGCGCUGAUACCAGUCACAGCCACGACCCUUGGCAGCAGUGGCGUUCAUGAUAAAAUAGAUUAA [theeternabot_sameState_KL_Theo_A_49]	0.042	0.0415	0.0414	0.037	0.0399
AACGUGGCCAAAGGAUAUCUCCCUACGUCGUUGCAUCUACCUCUGUUUGCUCUGAGUGAUGUUUGGAGAGAAGGUUGAGGCGAUU [theeternabot_exclusion_KL_FMN_B_29]	0.532	0.317	0.442	0.513	0.387
AACUGUCAAGGACAACAUUACUGAAGUGAUACCAGCAUCGAAAGAUGCCCUUGGCAGCACUGACUUGCAGUGAUGUUGCAAGUAA [BrourdMod 7 - Jieux - Exclusion - Theophylline A]	0.211	0.165	0.194	0.2	0.194
AACUGUCAAGGCCAACAUUACUGAGGUGAUACCAGCAUCGAAAGAUGCCCUUGGCAGCACCGACUUGCAGUGAUGUUGCAAGUAA [BrourdMod 12 - Jieux - Exclusion - Theophylline A]	0.329	0.266	0.333	0.37	0.287
AAGAGCUAGGCGGCCGCCACUAGAUGUGAACACAUACAAACCAGUGAUGUUGGUAUGAUGGACAGUAGGACCGGGCCUAGCUGAA [Exclusion - Tryptophan B (Freestyle 10)]	0.998	0.585	1.01	1.35	0.995
AAGCAGUCACUCGAAACCAUCGAAGAUGGGCGAGGACCGGUACGGCCGCCACUCGGAGUGAUGUUCCGAAGACUGCAAAAUAAAA	0.377	0.348	0.592	0.443	0.354
AAGCAGUCACUCGAAGCCAUCGAAGAUGGUCGAGGACCGGUACGGCCGCCACUCGGAGUGAUGUUCCGAAGACUGCAAAAUAAAA [#SwitchBubble 11]	0.275	0.246	0.286	0.273	0.526
AAGCAGUCACUCGCAGCCAUCGAAGAUGGGCGAGGACCGGUACGGCCGCCACUCGGAGUGAUGUUCCGCAGACUGCAAAAUAAAA	0.536	0.343	0.35	0.437	0.428
AAGCAGUCUCUCGAAGCCAUCGAAGAUGGGCGAGGACCGGUACGGCCGCCACUCGGAGUGAUGUUCCGAAGACUGCAAAAUAAAA [MatMod 10 - Jieux - Exclusion - Tryptophan A]	0.281	0.223	0.396	0.243	0.308
AAGCCAGAGAUUGCUGCGGGUUCCAGAGAUACCAGCCGUAUUGAAGGCCCUUGGCAGCUCGAGUGAUGUUCGAGCCGUCUCUAGC [Bisore]	0.126	0.101	0.124	0.123	0.11
AAGCGUGUCGCGGCCGCCACUCCUGAGUGAUGUUCAGAAAGCAGUUUUUUAUUCAGGAAAAGCGCGAGGACCGGGCGACGCCGAU [theeternabot_sameState_KL_Trp_B_1]	0.367	0.207	0.46	0.328	0.515
